# Data published in paper PMC11142274 (bioRxiv, 2024).
# T1: Tom70-EGFP-CNPase-ALFAtag (Mus musculus (assumed))
# T1 chain: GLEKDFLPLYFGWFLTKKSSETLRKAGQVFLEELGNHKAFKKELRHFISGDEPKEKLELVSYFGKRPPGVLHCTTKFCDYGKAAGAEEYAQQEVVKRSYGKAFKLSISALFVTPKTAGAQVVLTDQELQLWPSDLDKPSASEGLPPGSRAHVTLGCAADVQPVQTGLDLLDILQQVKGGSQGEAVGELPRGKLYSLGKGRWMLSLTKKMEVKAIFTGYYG
# B1: anti-CNPase nanobody NbCNP 7E (VHH)
# VHH: EVQLEESGGGWVHPGGSLRLSCAASGNVFGVNTMAWYRQAPGKQREQRELVASITDYGTTEYADSVKGRFTISGDNAKATVYLQMNSLKPEDTAVYYCNMDLTVMTATSSLYAYDYWGQGTQVTVSS
# B2: anti-CNPase nanobody NbCNP 8C (VHH)
# VHH: EVQLEESGGGLVQAGGSLTLSCAASGFTFDDYAMGWYRQAPGKERVGVSCISRTDGYTYYLDSVKGRFTISTDHAKHTVYLQMNNLKPDDTGLYYCAADADPEYGSRCPDPYYGMDYWGKGILVTVSS
# B3: anti-CNPase nanobody NbCNP 10E (VHH)
# VHH: EVQLEESGGGLVQPGGSLRLSCAVSGITLDDFGIGWFRQAPGKEREGVACISPGYEHIYYADSAKGRFTISRDNAKNTVYLQMNNLKPWDTGVYYCAADNDLPDRLWGGSDWSDPSPYDYWGQGTQVTVSS
# B4: MaBP-10E (His6-maltose binding protein fusion of NbCNP 10E) (VHH)
# VHH: B3 VHH
# B5: anti-CNPase nanobody NbCNP 8D (VHH)
# VHH: EVQLEESGGGLVQPGGSLRLSCAASGFTFSSYVMSWVRQAPGKGLEWVSDINSGGSRTYYTDSVKGRFTISRDNAKNTLYLQMNSLKPEDTAVYYCARDSLLSTRYLHTSERGQGTQVTVSS
# B6: iNbCNP 8D fused to mRuby3 (VHH)
# VHH: B5 VHH
# B7: iNbCNP 10E fused to mRuby3 (VHH)
# VHH: B3 VHH
# What was measured:
# full-length mouse CNPase [1] = molecular target: T2, full-length mouse CNPase (Mus musculus, UniProt P16330); assay: DSF thermal shift
# T2 sequence (P16330 whole entry, the tested form may be a part): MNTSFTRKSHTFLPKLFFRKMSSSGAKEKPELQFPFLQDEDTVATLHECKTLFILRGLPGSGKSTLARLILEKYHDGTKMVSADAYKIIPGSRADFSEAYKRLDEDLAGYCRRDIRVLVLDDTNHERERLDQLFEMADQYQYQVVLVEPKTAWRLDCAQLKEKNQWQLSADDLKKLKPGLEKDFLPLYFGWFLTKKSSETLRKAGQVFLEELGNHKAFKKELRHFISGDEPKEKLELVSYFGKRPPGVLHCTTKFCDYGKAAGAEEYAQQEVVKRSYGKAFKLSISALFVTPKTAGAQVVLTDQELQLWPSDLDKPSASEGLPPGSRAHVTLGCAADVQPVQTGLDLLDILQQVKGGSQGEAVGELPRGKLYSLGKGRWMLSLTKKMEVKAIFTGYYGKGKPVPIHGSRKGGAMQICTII
# [2] = molecular target: T3, mouse CNPase catalytic domain (mouse, UniProt P16330); assay: ITC
# [3] = molecular target: T3, mouse CNPase catalytic domain; assay: SEC-SAXS
# [4] = molecular target: T3, mouse CNPase catalytic domain; assay: SEC-SAXS; remark: listed apart in the source
# full-length mouse CNPase [5] = molecular target: T2, full-length mouse CNPase; assay: enzyme inhibition kinetics
# full-length mouse CNPase [6] = molecular target: T2, full-length mouse CNPase; assay: nanoDSF thermal shift
# [7] = molecular target: T1, Tom70-EGFP-CNPase-ALFAtag; assay: co-localisation with a target anchored to mitochondria
Binder,ΔTm of CNPase (full-length mouse CNPase [1]),Kd [2],dH [2],stoichiometry N [2],stoichiometry N [3],stoichiometry N [4],Ki (full-length mouse CNPase [5]),ΔTm of CNPase (full-length mouse CNPase [6]),binding result [7]
B1,2.1 °C,83.3 nM,-14.2 kcal/mol,0.863,1,–,–,–,–
B2,9.2 °C,16.6 nM,-7.07 kcal/mol,0.914,1,–,–,–,–
B3,4.2 °C,9.8 nM,-12.1 kcal/mol,0.804,–,2 molecules of CNPase per 10E molecule,0.604 ± 0.0507 nM,–,–
B4,–,13.4 nM,-18.1 kcal/mol,0.836,–,–,–,–,–
B5,18 °C,–,–,–,–,–,–,17.7 °C,–
B6,–,–,–,–,–,–,–,–,binds
B7,–,–,–,–,–,–,–,–,binds
